Experimental data: US11898183B2, “Programmed microorganisms to attenuate a disease” (priority 2020, dated 2024)

Test system: pathway specific substrates
Experiment: Enzyme functionality of pathway enzyme homologs and fusion constructs in lysed E. coli cell extracts, product by HPLC
Format: biochemical, E. coli BL21
Conditions: lysed cell extract; for enzyme activity: protein expressed in E. coli, pathway specific substrate, HPLC; for Enzyme activity in terms of product formation (in %): recombinant E. coli BL21 clone
Protocol: As per one of the possible implementations of the present disclosure, two proteins—cinnamate-4-hydroxylate (C4H) and 4-coumaroyl CoA-ligase (4CL) were expressed as one fusion protein. Also, other two proteins which were expressed as one fusion protein were hydroxycinnamoyl-CoA quinate hydroxycinnamoyltransferase (HCT) and p-coumaroyl quinate 3′-hydroxylase (HCTC3H). The fusion gene and the corresponding fusion protein was prepared using the following method. […] The enzyme fusion constructs were made for the selected genes (Table 5). Pathway genes and the fusion constructs were individually cloned in E. coli expression vector pET28+ under T7 promoter and transformed in E. coli BL21 cells. Recombinant bacterial cells were induced with IPTG and enzyme functionality was tested with pathway specific substrates (Table 5) using lysed E. coli cell extracts. HPLC analysis was carried out to quantify the product formation and in turn shortlisting of efficient enzymes for functional pathway assembly towards Etoposide in E. coli.
The E. coli transformants were grown overnight at 37° C. in 1 ml of M9 minimal media containing ampicillin (100 mg/1), in 96-well format. The next day, 150 μl of each culture was inoculated into 3 ml M9 minimal media containing ampicillin (100 mg/1), IPTG 0.1 mM in 24-well format, and incubated at 30° C. and 200 rpm for ˜20 hours. The following day, cells were spun down and pellets were resuspended in 100 μl of lysis buffer containing 10 mM Tris-HCl pH 8, 5 mM MgCl2, 1 mM CaCl2) and complete mini protease inhibitor EDTA-free (3 tablets/100 ml) (Hoffmann-La Roche, Basel, Switzerland) and frozen at −80° C. for at least 15 minutes to promote cell lysis. Pellets were thawed at room temperature and 50 μl of DNase mix (1 μl of 1.4 mg/ml DNase in H2O (˜80000 u/ml), 1.2 μl of MgCl2 500 mM and 47.8 μl of 4×PBS buffer solution) was added to each well. Plates were shaken at 500 rpm for 5 min at room temperature to allow degradation of genomic DNA. Plates were spun down at 4000 rpm for 30 min at 4° C. and six μl of the lysates were used in in vitro using appropriate substrates for enzymes as per Table 6. In each case, the resulting compounds were measured by HPLC. Results were analysed in comparison with the lysates expressing the corresponding controls (the empty plasmid). […]

B1: UGT Cicer arietinum: Glycosyltransferase (UGT) from Cicer arietinum (protein, listed as Cicer arietinum)
chain: MKKIEVVFIPSPGVGHLISTLEFANLLINRNNRLNITVLVINFPKTVEKQTNYSLTESENLHVINLPQTTTHVPSTSDVGNSISALVETQKSNVKQAVSNLTGTLAAFVVDMFCTTMIDVANELGVPSLVFFTSGVAFLGLMLHLHTIWEQQDTELLLQQDELDIPSFANPVATNTLPTLVLRKEWESSFIKYGNGLKKASGIIVNSFHELEPHAVRSFLEDPTLRDLPIYPVGPILNPKSNVDSDDVIKWLDDQPPSSVVFLCFGSMGTFDEEQVREIALAIERSGVRFLWSLRKPQPQGTMVPPSDYTLSQMLEVLPEGFLDRTANIGRVIGWAPQVQVLAHQATGGFVSHCGWNSTLESIYYGVPIATWPLFAEQQTNAFELVRELKIAVEIALDYRLEFDIGRNYLLDADKIERGIRGVLDKDGEVRKKVKEMSQKSRNVLLEGGSSYTYLGQLIDYITNQV
enzyme activity: 97%

B2: C4H4CL Azospirillum sp.: Cinnamate 4 hydroxylase 4 coumarate coenzyme ligase fusion (C4H4CL), Azospirillum sp. (protein)
chain: MDLLLLEKTLLALFIAATIAITISKLRGKRFKLPPGPIPVPVFGNWLQVGDDLNHRNLTDLAKRFGDIFLLRMGQRNLVVVSSPELAKEVLHTQGVEFGSRTRNVVFDIFTGKGQDMVFTVYGTLAEMRRIMTVPFFTNKVVQQYRFGWEFEAQSVVDDVKKNPEACSSGIVLRRRLQLMMYNIMYRIMFDRRFESEEDPLFVKLKALNGERSRLAQSFEYNYGDFIPILRPFLKGYLKLCKEVKDRRLQLFKDYFVDERKKLGSTKSTTNEGLKCAIDHILDAQQKGEINDDNVLYIVENINVAAIETTLWSIEWGIAELVNHQKIQNKVREEIDRVLGPGHQVTEPDLQKLPYLQAVIKETLRLRMAIPLLVPHMNLHDAKLSGFDIPAESKILVNAWWLANNPAQWKKPEEFRPERFLEEESHVEANGNDFRYLPFGVGRRSCPGIILALPILGITLGRLVQNFELLPPPGQSKIDTAEKGGQFSLHILKHSTIVCKPRSFNGGGGSGGGGSGGGGSMTIQRWWRNRESLNRVLCDLLAGEFARLRPGGSPPAHPHRWPETLPLGPDGVGADSLDLLQLAAALNEALHLHRSGIEDYLLMHRTVGDWLDVCEAALGRFDGALSFRTSGSTGEGKRCEHPLAALEEEADALAALLSGGAEAPRRVVSVVPAHHIYGFLFTVLLPDRLAVPVVDGRGTSPGGLAARLGPGDLVVAHPDWWGALLRSGAALPDGVTGTSSTAPCPPDTARGVRGVGLARLVEVFGSSETAGLGWRESPDAPFRPFPWWRFGDDGRVTRRLADGTVLSATLQDRLSHDEEGFRPSGRLDTVVQVGGVNVSLAGVQAHLAGHPDVEAAAVRLMRPEEGTRLKAFIVPARTAPPREELYRRLTDWIEATLPAPHRPRALAFGPALPVNGMGKPCDWPLATCR
modifications: Depicts the nucleic acid sequence of Cinnamte 4 hydroxylase 4 coumarate coenzyme ligase fusion (C4H4CL) of Azospirillum sp.
enzyme activity: 97%

B3: HCTC3H Coffea canephora: hydroxycinnamoyl-CoA:quinate hydroxycinnamoyltransferase p-coumaroyl quinate 3′-hydroxylase fusion (HCTC3H), Coffea canephora (protein, listed as Coffea canephora)
chain: MKIEVKESTMVRPAQETPGRNLWNSNVDLVVPNFHTPSVYFYRPTGSSNFFDAKVLKDALSRALVPFYPMAGRLKRDEDGRIEIECNGEGVLFVEAESDGVVDDFGDFAPTLELRRLIPAVDYSQGISSYALLVLQVTYFKCGGVSLGVGMRHHAADGFSGLHFINSWSDMARGLDVTLPPFIDRTLLRARDPPQPQFQHIEYQPPPALKVSPQTAKSDSVPETAVSIFKLTREQISALKAKSKEDGNTISYSSYEMLAGHVWRCACKARGLEVDQGTKLYIATDGRARLRPSLPPGYFGNVIFTATPIAIAGDLEFKPVWYAASKIHDALARMDNDYLRSALDYLELQPDLKALVRGAHTFKCPNLGITSWVRLPIHDADFGWGRPIFMGPGGIAYEGLSFILPSPTNDGSMSVAISLQGEHMKLFQSFLYDIGGGGSGGGGSGGGGSMALLLILLPVAFIFLAYSLYERLRFKLPPGPRPKPVVGNIYDIKPVRFKCYAEWSKLYGPIFSVYFGSQLNTVVNTAELAKEVLKDNDQQLADRYRSRPSARMSRNGQDLIWADYGPHYVKVRKLCNLELFTPKRLEGLRPLREDEVTAMVDSIFKDCTKPENKGKSLLMRNYLGSVAFNNITRLTFGKRFMNSEGVVDEQGQEFKGIVSNGIRIGAKLSVADHIPWLRWMFVGENEDLDKHNARRDKLTRMIMEEHTLARQKSGNTKQHFVDALLTLQKQYELSDDTVIGLLWDMITAGMDTTTISVEWAMAELVKNPRVQQKAQEELDRVIGSDRIMTEADFAKLPYLQCVAKEALRLHPPTPLMLPHRANANVKIGGYDIPKGSIVHVNVWAIARDPAAWKNPLEFRPERFLEEDVDIKGHDYRLLPFGAGRRICPGAQLALNLVTSMLGHLLHHFTWSPPPGVRPEEIDLEESPGTVTYMRTPLQAVATPRLPAHLYNRVPVE
enzyme activity: 89%

B4: Glycosyltransferase (UGT) (SEQ ID NO: 42) Mates domestica (protein, listed as Malus domestica)
chain: MKKVELVFIPSPGAGHHLPTLQFVKRLIDRNDRISITILAIQSYFPTTLSSYTKSIAASEPRIRFIDVPQPQDRPPQEMYKSRAQIFSLYIESHVPSVKKIITNLVSSSANSSDSIRVAALVVDLFCVSMIDVAKELNIPSYLFLTSNAGYLAFMLHLPILHEKNQIAVEESDPDWSIPGIVHPVPPRVLPAALTDGRLSAYIKLASRFRETRGIIVNTFVELETHAITLFSNDDRVPPVYPVGPVIDLDDGQEHSNLDQAQRDKIIKWLDDQPQKSVVFLCFGSMGSFGAEQVKEIAVGLEQSGQRFLWSLRMPSPKGIVPSDCSNLEEVLPDGFLERTNGKKGLICGWAPQVEILAHSATGGFLSHCGWNSILESLWHGVPIATWPMYAEQQLNAFRMVRELGMALEMRLDYKAGSADVVGADEIEKAVVGVMEKDSEVRKKVEEMGKMARKAVKDGGSSFASVGRFIEDVIGQN
Enzyme activity in terms of product formation (in %) (substrate tested: Desmethylepipodophyllotoxin): 54%

B5: CYP82D (SEQ ID NO: 40) Panax ginseng (protein)
chain: METFLAQLYSTTTIAALFVLLVLYYFSPWTRINKKNVAPEAGGGWPIIGHLHLLGGSKLPHLVFGSMADKYGPIFTVRLGVQRSLVVSSWEMVKDIFTTNDVIVSGRPKFLAAKHLSYNYAMFGFSPYGSFWLELRKITSLQLLSNRRLELLKHVRVSEMEISMRQLYKLWSEKKNGSGRVLMDMKKWFGELNLNVTFRMVAGKRYFGGGAASNDEEARRCRRVVREFFRLLGVVVVADSLPFLRWLDLGGYERAMKETAREMDSIVSVWLEEHRIKSDSSGDDANMEQDFMDVMLSAVKNVDLCGFDAHTVIKATCMVIISSGTDTTTVELTWALCLLLNNRHVLKKAQEELDNVVGKQRRVKESDLNNLIYLQAIVKETLRLYPAGQLGGQREFSDDCTVGGYHVPKRTRLVVNLWKLHRDPRIWSDPTEFRPERFLERHKEIDVKGQHFELIPFGAGRRVCPGITFGLQMFHLVLASLLHGFDISTPSDAPVDMAEGAGLTNAKITPLEILIAPRLSPSLYE
modifications: Panax ginseng
Enzyme activity in terms of product formation (in %) (substrate tested: Deoxypodophyllotoxin): 93%

B6: PAL Ganoderma sinense: Phenylalanine ammonia-lyase (PAL) from Ganoderma sinense (protein)
chain: MPGYTLTKTQSTSTFEPSPVTLKKAAVSSPLHAEPELPKQSSAPTLLHKFVEAHRALNNYKQGQPIVVDGQTLSIPAVAAVARYNADVVLDDSSDIQTRVLKSRQVIVDKVSSQKSVYGVSTGFGGSADTRTSDPLTLGLALFQHQHCGVLPSDTDSVPVALPLLDPLTSTSMPESWVRGAILIRMNSLIRGHSGVRWELIERMSALLRENIVPLVPLRGSISASGDLSPLSYIAGLLIGNPSIRVFDGPSTFRGRRIVSSREALSAHHIEPISLGSKEHLGILNGTAFSASVGALAVHEAVHLSLLGQVCTAMCTEAMLGAKGSFAPFIHSVARPHPGQVEVAETVTDLLEGSHFAVTAEEEKHISADIGELRQDRYPLRTSAQFLGPQVEDVLSAFAAITIECNSTTDNPLIDGETGEVHHGGNFQAMSVTNAMEKTRLAMHHIGKLLFAQCTELLNPSMNRGLPPNLAATDPSHNYFAKGVDIHAAAYVGELGYLANPVSTHVQSAEMHNQAVNSLALISARATLNSLEVLSILTSSFLYVLCQALDLRAMQHEFELEVDGILRQQLALSFGRHLSAADLDALFSVLSRHVRRSLETTSTMDAALRMRTVAAATTTPFVDFCAKRNTSLDLDEIVAFRAGLSEGMVGSLVRLREEYLRGSKGPAPAAKYLGRSRAVYEFVRVTLGIRMHGSENLHDFKEGPGVEDPTIGQDIALIHEAIRDGKMQDVVVGIFA
modifications: Ganoderma sinense
enzyme activity: 98%
